Measurements: patent publication US20240117030A1 (Pfizer, published 2024)

T1: human IL-4 (human, UniProt P05112 25-153)
T1 sequence (looked up): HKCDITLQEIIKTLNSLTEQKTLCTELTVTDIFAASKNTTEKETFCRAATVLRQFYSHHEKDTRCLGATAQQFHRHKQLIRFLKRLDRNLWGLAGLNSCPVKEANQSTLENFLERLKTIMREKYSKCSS

T2: human IL-4 (human, UniProt P05112 25-153)
T2 sequence (looked up): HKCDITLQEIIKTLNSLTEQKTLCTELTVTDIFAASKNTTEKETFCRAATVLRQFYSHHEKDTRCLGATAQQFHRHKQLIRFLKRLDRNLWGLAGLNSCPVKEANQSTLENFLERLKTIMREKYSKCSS


Columns and labels:
Assay in all cases: cell-based or functional assay
human TSLP (long form) = human TSLP (long form) (human, UniProt Q969D9 29-159, Biotinylated on the Avi tag in some assays; glycosylated (Expi293F expression))
human IL-13 [1] = molecular target: human IL-13 (human, UniProt P35225 35-146)
Target sequence in this assay (P35225 35-146 limits assumed, form in doubt): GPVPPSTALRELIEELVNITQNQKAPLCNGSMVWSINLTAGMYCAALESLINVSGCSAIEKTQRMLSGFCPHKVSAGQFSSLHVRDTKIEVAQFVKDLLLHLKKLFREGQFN

human IL-4 [2] = molecular target: T1, human IL-4
human IL-13 [3] = molecular target: human IL-13 (human, UniProt P35225 35-146); remark: listed apart in the source
Target sequence in this assay (P35225 35-146 limits assumed): as the sequence (P35225 35-146 limits assumed, form in doubt) above

human IL-4 [4] = molecular target: T2, human IL-4; remark: listed apart in the source

Row | fold lower potency than the mAb (TSLP-0855), monocyte TARC bioassay (human TSLP (long form)) | IC50, IL-13-induced CCL17 secretion by 769-P cells (human IL-13 [1]) | IC50, IL-4-induced CCL17 secretion by 769-P cells (human IL-4 [2]) | a-hIL-13 IC50 [pM] (human IL-13 [3]) | a-hIL-4 IC50 [pM] (human IL-4 [4]) | Binder
1 | ~2.5 fold | 812 pM | 139 pM | – | – | IL413TSLP-1028 (trispecific antibody) heavy: not shown chain 1: DIQMTQSPSSLSASVGDRVTITCKASESVDHFGWSLVHWYQQKPGKAPKLLIYRASNLESGVPSRFSGSGSGTDFTLTISSLQPEDFATYYCQQSNEDPWTFGGGTKVEIKRTVAAPSVFIFPPSDEQLKSGTASVVCLLNNFYPREAKVQWKVDNALQSGNSQESVTEQDSKDSTYSLSSTLTLSKADYEKHKVYACEVTHQGLSSPVTKSFNRGECGGGGSEVTLRESGPALVKPTQTLTLTCTFSGFSLSNFGEGLSWIRQPPGKGLEWLAHIYWDDDKRYNPSLKSRLTISKDTSRNQVVLTMTNMDPVDTATYYCARRETVFYWYFDVWGQGTTVTVSSASTKGPSVFPLAPSSKSTSGGTAALGCLVKDYFPEPVTVSWNSGALTSGVHTFPAVLQSSGLYSLSSVVTVPSSSLGTQTYICNVNHKPSNTKVDKKVEPKSCEKTHTCPPCPAPEAAGAPSVFLFPPKPKDTLMISRTPEVTCVVVDVSHEDPEVKFNWYVDGVEVHNAKTKPREEQYNSTYRVVSVLTVLHQDWLNGKEYKCKVSNKALPAPIEKTISKAKGQPREPQVYTLPPSREEMTKNQVSLTCEVKGFYPSDIAVEWESNGQPENNYKTTPPVLDSDGSFFLYSKLTVDKSRWQQGNVFSCSVLHEALHSHYTQKSLSLSPGK light 1: SYVLTQPPSVSVAPGQTARITCGGNNLGSKSVHWYQQKPGQAPVLVVYDDSDRPSWIPERFSGSNSGNTATLTISRGEAGDEADYYCQVWDSSSKHVVFGGGTKLTVLGQPKAAPSVTLFPPSSEELQANKATLVCLISDFYPGAVTVAWKADSSPVKAGVETTTPSKQSNNKYAASSYLSLTPEQWKSHRSYSCQVTHEGSTVEKTVAPTECS light 2: DIQMTQSPSSLSASVGDRVTITCRASQSVDEEGDSYMNWYQQKPGKAPKLLIYAASNLESGVPSRFSGSGSGTDFTLTISSLQPEDFATYYCQQSNKDPPTFGGGTKVEIKRTVAAPSVFIFPPSDEQLKSGTASVVCLLNNFYPREAKVQWKVDNALQSGNSQESVTEQDSKDSTYSLSSTLTLSKADYEKHKVYACEVTHQGLSSPVTKSFNRGEC chain 2: EVQLVESGGGLVQPGGSLRLSCAASGFTFSSYAMSWVRQAPGKGLEWVASISSGDTTYYPDSVKGRFTISRDNAKNSLYLQMNSLRAEDTAVYYCARNEGYYFGLTLWGQGTLVTVSSASTKGPSVFPLAPSSKSTSGGTAALGCLVKDYFPEPVTVSWNSGALTSGVHTFPAVLQSSGLYSLSSVVTVPSSSLGTQTYICNVNHKPSNTKVDKKVEPKSC
2 | – | – | – | 11.2 pM | 3.65 pM | IL413TSLP-0252 (other) heavy: not shown chain 1: DIQMTQSPSSLSASVGDRVTITCKASESVDHFGWSLVHWYQQKPGKAPKLLIYRASNLESGVPSRFSGSGSGTDFTLTISSLQPEDFATYYCQQSNEDPWTFGGGTKVEIKRTVAAPSVFIFPPSDEQLKSGTASVVCLLNNFYPREAKVQWKVDNALQSGNSQESVTEQDSKDSTYSLSSTLTLSKADYEKHKVYACEVTHQGLSSPVTKSFNRGECGGGGSEVTLRESGPALVKPTQTLTLTCTFSGFSLSNFGEGLSWIRQPPGKGLEWLAHIYWDDDKRYNPSLKSRLTISKDTSRNQVVLTMTNMDPVDTATYYCARRETVFYWYFDVWGQGTTVTVSSASTKGPSVFPLAPSSKSTSGGTAALGCLVKDYFPEPVTVSWNSGALTSGVHTFPAVLQSSGLYSLSSVVTVPSSSLGTQTYICNVNHKPSNTKVDKKVEPKSCEKTHTCPECPAPEAAGAPSVFLFPPKPKDTLMISRTPEVTCVVVDVSHEDPEVKFNWYVDGVEVHNAKTKPREEQYNSTYRVVSVLTVLHQDWLNGKEYKCKVSNKALPAPIEKTISKAKGQPREPQVYTLPPSREEMTKNQVSLTCEVKGFYPSDIAVEWESNGQPENNYKTTPPVLDSDGSFFLYSKLTVDKSRWQQGNVFSCSVMHEALHNHYTQKSLSLSPGK light 1: SYVLTQPPSVSVAPGQTARITCGGNNLGSKSVHWYQQKPGQAPVLVVYDDSDRPSWIPERFSGSNSGNTATLTISRGEAGDEADYYCQVWDSSSDHVVFGGGTKLTVLGQPKAAPSVTLFPPSSEELQANKATLVCLISDFYPGAVTVAWKADSSPVKAGVETTTPSKQSNNKYAASSYLSLTPEQWKSHRSYSCQVTHEGSTVEKTVAPTECS light 2: DIQMTQSPSSLSASVGDRVTITCKASQSVDEDGDSYMNWYQQKPGKAPKLLIYAASNLESGVPSRFSGSGSGTDFTLTISSLQPEDFATYYCQQSNEDPPTFGGGTKVEIKRTVAAPSVFIFPPSDEQLKSGTASVVCLLNNFYPREAKVQWKVDNALQSGNSQESVTEQDSKDSTYSLSSTLTLSKADYEKHKVYACEVTHQGLSSPVTKSFNRGEC chain 2: EVQLVESGGGLVQPGGSLRLSCAASGFTFSSYAMSWVRQAPGKGLEWVASISSGDTTYYPDSVKGRFTISRDNAKNSLYLQMNSLRAEDTAVYYCARNEGYYFGLTLWGQGTLVTVSSASTKGPSVFPLAPSSKSTSGGTAALGCLVKDYFPEPVTVSWNSGALTSGVHTFPAVLQSSGLYSLSSVVTVPSSSLGTQTYICNVNHKPSNTKVDKKVEPKSC
3 | – | – | – | 13.7 pM | 6.11 pM | IL413TSLP-0251 (other) heavy: not shown chain 1: EVQLVESGGGLVQPGGSLRLSCAASGFTFSSYAMSWVRQAPGKGLEWVASISSGDTTYYPDSVKGRFTISRDNAKNSLYLQMNSLRAEDTAVYYCARNEGYYFGLTLWGQGTLVTVSSRTVAAPSVFIFPPSDEQLKSGTASVVCLLNNFYPREAKVQWKVDNALQSGNSQESVTEQDSKDSTYSLSSTLTLSKADYEKHKVYACEVTHQGLSSPVTKSFNRGECGGGGSEVTLRESGPALVKPTQTLTLTCTFSGFSLSNFGEGLSWIRQPPGKGLEWLAHIYWDDDKRYNPSLKSRLTISKDTSRNQVVLTMTNMDPVDTATYYCARRETVFYWYFDVWGQGTTVTVSSASTKGPSVFPLAPSSKSTSGGTAALGCLVKDYFPEPVTVSWNSGALTSGVHTFPAVLQSSGLYSLSSVVTVPSSSLGTQTYICNVNHKPSNTKVDKKVEPKSCEKTHTCPECPAPEAAGAPSVFLFPPKPKDTLMISRTPEVTCVVVDVSHEDPEVKFNWYVDGVEVHNAKTKPREEQYNSTYRVVSVLTVLHQDWLNGKEYKCKVSNKALPAPIEKTISKAKGQPREPQVYTLPPSREEMTKNQVSLTCEVKGFYPSDIAVEWESNGQPENNYKTTPPVLDSDGSFFLYSKLTVDKSRWQQGNVFSCSVMHEALHNHYTQKSLSLSPGK light 1: SYVLTQPPSVSVAPGQTARITCGGNNLGSKSVHWYQQKPGQAPVLVVYDDSDRPSWIPERFSGSNSGNTATLTISRGEAGDEADYYCQVWDSSSDHVVFGGGTKLTVLGQPKAAPSVTLFPPSSEELQANKATLVCLISDFYPGAVTVAWKADSSPVKAGVETTTPSKQSNNKYAASSYLSLTPEQWKSHRSYSCQVTHEGSTVEKTVAPTECS light 2: DIQMTQSPSSLSASVGDRVTITCKASQSVDEDGDSYMNWYQQKPGKAPKLLIYAASNLESGVPSRFSGSGSGTDFTLTISSLQPEDFATYYCQQSNEDPPTFGGGTKVEIKRTVAAPSVFIFPPSDEQLKSGTASVVCLLNNFYPREAKVQWKVDNALQSGNSQESVTEQDSKDSTYSLSSTLTLSKADYEKHKVYACEVTHQGLSSPVTKSFNRGEC chain 2: DIQMTQSPSSLSASVGDRVTITCKASESVDHFGWSLVHWYQQKPGKAPKLLIYRASNLESGVPSRFSGSGSGTDFTLTISSLQPEDFATYYCQQSNEDPWTFGGGTKVEIKASTKGPSVFPLAPSSKSTSGGTAALGCLVKDYFPEPVTVSWNSGALTSGVHTFPAVLQSSGLYSLSSVVTVPSSSLGTQTYICNVNHKPSNTKVDKKVEPKSC
